The term EC50 denotes the concentration at which the effect is half-maximal. By Kd is commonly meant the free concentration of one partner at which half of the binding sites on the other are occupied at equilibrium, for simple one-to-one binding.

Where a chain is given by its changes, count along the chain named.

First the molecules themselves.
B1: humanized anti-CD40 antibody hu9E5 (H1c heavy chain and L1a light chain) (antibody, human IgG1, kappa, V domains shown)
VH: QVQLVQSGAEVKKPGASVKVSCKASGYILTTYWITWVRQAPGQGLEWMGDIHPGSGSTKYNEKFKSRVTLTVDTSISTAYMELSRLRSEDTAVYYCARRDYWGQGTTVTVSS
VL: DIVMTQSPLSLPVTPGEPASISCRSSQNIVNSQGNTYLEWYLQKPGQSPQLLIYKVTNRFSGVPDRFSGSGSGTDFTLKISRVEAEDVGVYYCFQASLVPWTFGGGTKVEIKR
notes: the suffix -25 is not explained; Human IgG1/kappa; also called Hu9E5-25
B2: mouse hybridoma anti-human CD40 antibody 1D9 (antibody, V domains shown)
VH: QVRLQQSGAELVRPGTSMRVSCKASGYAFTNYLINWVKQRPGQGLEWIGILNPGSGGTNYNENFKDKATLTADKSSNTAYMQLSSLTSEDSAVYFCIRGSPGFAYWGQGTLVTVSA
VL: DIQMTQTTSSLSASLGDRVTISCRASQDINIYLNWYQQKPDGTVKLLIYSTSGLHSGVPSRFNGSGSGTDYSLTISNLEQEDIATYFCQQGYTLPYTFGGGTKLEIK
notes: Murine hybridoma antibody
B3: mouse hybridoma anti-human CD40 antibody 9E5 (antibody, V domains shown)
VH: QVQLQQPGADLVKPGASVKMSCKASGYILTTYWITWVKQRPGQGLEWIGDIHPGSGSTKYNEKFKSKATLTVDTSSSTAYMQLTRLSSEDSAVYYCARRDYWGQGTTLTVSS
VL: DVLMTQSPLSLPVSLGDQASISCRSSQNIVNSQGNTYLEWYLQKPGESPKLLIYKVTNRFSGVPDRFSGSGSGTDFTLKISRVEAEDLGVYYCFQASLVPWTFGGGTKLEIK
notes: Murine hybridoma antibody; also called mouse 9E5
B4: mouse hybridoma anti-human CD40 antibody 38B4 (antibody, V domains shown)
VH: QVRLKQSGAELVRPGASVKVSCKASGYTFTDYYINWVKQRPGQGLEWIAGIYPGTGNTYYNEKFKGKATLTAERSSSTAYMQLTSLTSEDSAVYFCTRRGLPSLCFDYWGQGTTLTVSS
VL: DFQMTQTTSSLSASLGDRVTISCSASQGISNYLNWYQQKPDGTVKLLIYYTSSLHSGVPSRFSGSGSGTDYSLTISNLEPEDIATYYCQQYSKLPPTFGGGTKLEIK
notes: Murine hybridoma antibody
B5: mouse hybridoma anti-human CD40 antibody 2H6 (antibody, V domains shown)
VH: QVQLQQSGAELVRPGTSVKVSCKASGYAFSDYLIEWAKQRPGQGLEWIGVINPGSGGSNYNEKIKDRATLTADKSSSTAYMQLSSLTSEDSAVYFCARGGGGFTYWGQGTLVTVSA
VL: EIQLTQTTSSLSASLGDRVTISCRASQDISNYLNWYQQKPDGTIKLLLNFASRLHSGVPSRFSGSGSGTDFFLTISNLEQDDIATYFCQQGSTLPWTFGGGTKLEIK
notes: Murine hybridoma antibody; also called mouse mAb 2H6
B6: mouse hybridoma anti-human CD40 antibody 14C10 (antibody, V domains shown)
VH: B5 VH with L4V, S30T, D31N, A37V, G54E, S55F, S58T, I64F, D66G, R67K
VL: HIQMTQTTSSLSASLGDRVTISCRASQDISSHLNWYQQKPDGTVKLLISYTSRLHSGVPSRFSGSGSGADYSLTISNLEQEDIATYFCQQGNTLPWTFGGGTKLEIK
notes: Murine hybridoma antibody
B7: humanized anti-CD40 antibody hu2H6 (H1b heavy chain and L1c light chain) (antibody, human IgG1, kappa, V domains shown)
VH: QVQLVQSGAEVKKPGSSVKVSCKASGYAFSDYLIEWVRQAPGQGLEWMGVINPGSGGSNYNEKIKDRVTLTADKSTSTAYMELSSLRSEDTAVYYCARGGGGFTYWGQGTLVTVSS
VL: DIQLTQSPSSLSASVGDRVTITCRASQDISNYLNWYQQKPGKTIKLLLNFASRLHSGVPSRFSGSGSGTDFTFTISSLQPEDIATYYCQQGSTLPWTFGGGTKVEIKR
notes: the suffix -11 is not explained; Human IgG1/kappa; also called Hu2H6-11
B8: human-mouse chimeric antibody 9E5-C (antibody, V domains shown)
VH: B3 VH
VL: B3 VL
notes: Variable regions of murine 9E5 ligated to the constant region of human antibody IgG1; made in HEK293 cells
B9: human-mouse chimeric antibody 2H6-C (antibody, V domains shown)
VH: B5 VH
VL: B5 VL
notes: Variable regions of murine 2H6 ligated to the constant region of human antibody IgG1; made in HEK293 cells

T2 sequence (P27512 24-193 limits assumed): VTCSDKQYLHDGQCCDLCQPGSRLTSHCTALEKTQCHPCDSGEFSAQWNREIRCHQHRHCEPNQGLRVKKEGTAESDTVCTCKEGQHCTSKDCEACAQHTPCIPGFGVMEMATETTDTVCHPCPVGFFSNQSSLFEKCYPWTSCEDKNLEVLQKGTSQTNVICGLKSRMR
T1 sequence (P25942 21-193 limits assumed): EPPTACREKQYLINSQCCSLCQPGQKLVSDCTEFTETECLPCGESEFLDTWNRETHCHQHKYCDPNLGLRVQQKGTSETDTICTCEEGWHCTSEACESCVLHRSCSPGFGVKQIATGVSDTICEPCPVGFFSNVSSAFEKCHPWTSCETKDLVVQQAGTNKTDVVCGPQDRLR

The first test concerns the target T1, His-tagged human CD40 (h-CD40-his) recombinant protein (human, UniProt P25942 21-193).
T1 construct: range 21-193; Bought from Acrobiosystems; also called Human CD40-his; not shown: His tag
Kind of test: Biacore, affinity to human CD40. An excerpt: (§1) Human antibody captured antibody was covalently coupled to CM5 biosensor chip of Biacore instrument (Biacore X100, GE) according to the method described in the description of Human Antibody Capture Kit (Cat. BR-1008-39, GE), thereby capturing a certain amount of chimeric or humanized antibodies to be tested based on affinity. Then a series of concentration gradient CD40 antigens (purchased from Acrobiosystems) flowed through the surface of chip, and Biacore X100 (GE) was used to detect the reaction signals in real time to obtain the binding and dissociation curves. After the completion of each cycle of dissociation, the biochip was rinsed and regenerated with the regeneration solution provided by the Human Antibody Capture Kit. Amine Coupling Kits (Cat. BR-1000-50, GE) were purchased from GE, and the buffer solution HBS-EP+buffer 1× (pH 7.4), which was obtained from HBS-EP+buffer 10× (Cat. BR-1006-69, GE) by dilution with D. I. Water.
Regarding B1, the “fold of affinity against the Alligator reference” value stood at 9 times and the “fold of affinity against the Pfizer reference” value was found to be 3 times.

The next test concerns the target T2, His-tagged mouse CD40 (m-CD40-his) recombinant protein (mouse, UniProt P27512 24-193).
T2 construct: range 24-193; Bought from Acrobiosystems; also called Mouse CD40-his; not shown: His tag
The test can be described thus: ELISA, CD40-his coated. (An ELISA detects its analyte on a solid surface through an enzyme-linked reagent.)
As to B2, the binding result is “no binding”.
Still for that read-out and setting: next, B3: “no binding”; B4: “no binding”; B5: “no binding”.
As for B6, the binding result is on record as “no binding”.

In another test the target is human CD40 on HEK293 cells stably transfected with the human CD40 gene (HEK-Blue CD40L cells) (human, UniProt P25942 21-277). Kind of test: cell-based or functional assay.
Sequence of human CD40 on HEK293 cells stably transfected with the human CD40 gene (HEK-Blue CD40L cells) (P25942 21-277): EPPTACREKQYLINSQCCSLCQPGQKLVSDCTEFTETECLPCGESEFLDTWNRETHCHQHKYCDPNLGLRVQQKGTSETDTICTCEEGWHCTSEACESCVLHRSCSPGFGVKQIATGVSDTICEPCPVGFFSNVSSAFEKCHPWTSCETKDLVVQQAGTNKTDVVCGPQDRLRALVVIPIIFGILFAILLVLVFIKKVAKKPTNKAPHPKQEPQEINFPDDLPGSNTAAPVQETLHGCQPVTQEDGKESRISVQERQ
With B2, the “HEK293-CD40L cells activity assay EC50” value was determined as 0.0145 µg/mL.
The same measure, in the same setting: for B3 the value was 0.0171 µg/mL.
On to B4, for which the “HEK293-CD40L cells activity assay EC50” value came to 0.0365 µg/mL.
As to B5, the “HEK293-CD40L cells activity assay EC50” value amounted to 0.0151 µg/mL.
The same measure, in the same setting: for B6 the value was 0.0109 µg/mL.

A further test concerns the target T3, His-tagged rhesus CD40 (rhesus-CD40-his) recombinant protein (rhesus, UniProt F6SNI1 21-193).
T3 construct: range 21-193; Bought from Acrobiosystems (# CD0-052H7); not shown: His tag
The test can be described thus: ELISA, rhesus CD40-his coated. On the procedure: (§2) Binding properties of anti-CD40 antibodies was detected by ELISA assay. The CD40 recombinant protein with his-tag was directly used for coating, after the antibody was added, the binding activity of the antibody to the antigen—was detected by adding a secondary antibody (HRP-conjugated anti-antibody Fc antibody) and HRP substrate TMB.
(§3) A 96-well microtiter plate was coated with 100 μl/well of human or rhesus CD40-his protein at a concentration of 0.5 μg/ml and incubated overnight at 4° C. The plate was rinsed three times with rinsing buffer, 250 μl per well. For each rinsing, the plate was shaken for 10 seconds to ensure sufficient cleaning. 200 μl blocking solution was added in each well and incubated for 2 hours at room temperature. Then the plate was washed three times with 250 μl per well. The plate was shaken for 10 seconds in each rinsing to ensure sufficient cleaning. 100 μl of anti-CD40 antibody to be tested diluted in dilution was added to each well, and incubated for 1 hour at room temperature, then rinsing the plate for three times with 250 μl of rinsing buffer per well. 100 μl of HRP-labeled goat anti-human IgG secondary antibody diluted 1:20000 with diluent was added to each well, and incubated for 1 hour at room temperature. Then the plate was washed three times with 250 μl per well. 100 μl of TMB was added to each well and allowed to react for 15 minutes in the dark. 50 μl of 0.16 M sulfuric acid per well was added. The OD value was measured at 450 nm by Thermo MpμltiSkanFc plate reader and the binding EC50 value of the CD40 antibody to […] was calculated.
In the case of B2, the EC50 was determined as 9.81 ng/mL.
Turning to B3, the concentration for a half-maximal effect (EC50) amounted to 6.7 ng/mL.
On the same count and under the same terms, for B4 the value was 11.8 ng/mL; for B5, 7.21 ng/mL.
As to B6, the EC50 was 9.49 ng/mL.
Same read-out and setting: for B1 the value was 1.66 ng/mL; for B7, 2.95 ng/mL.

A further test deals with T1, His-tagged human CD40 (h-CD40-his) …. The test can be described thus: ELISA, human CD40-his coated. On the procedure:
as §2, §3
Take B2: the EC50 worked out at 10 ng/mL.
Consider B3, for which the concentration giving a half-maximal response (EC50) was 6 ng/mL.
Still for that read-out and setting: for B8 the value was 1.35 ng/mL.
Same read-out and setting: next, B4: 12.9 ng/mL; B5: 7.06 ng/mL.
For the molecule B9, the concentration for a half-maximal effect (EC50) turned out to be 4.56 ng/mL.
As to B6, the concentration for a half-maximal effect (EC50) turned out to be 8.81 ng/mL.
B1: the concentration giving a half-maximal response (EC50) was determined as 1.65 ng/mL.
On the same count and under the same terms, for B7 the value was 3.68 ng/mL.

The target is the same in the next test. Kind of test: Biacore X100, antibody captured by anti-human antibody on CM5 chip, CD40 antigen as analyte, 1:1 model.
Text: as §1
On to B8, for which the Kd is 2.68 nM.
On the same count and under the same terms, for B9 the value was 3.98 nM; for B1, 5.3 nM; for B7, 11.2 nM.

The values above are taken from patent publication US20200148778A1 (JIANGSU HENGRUI MEDICINE, published 2020).
